Test [1] has as its target MBP-E6 F2V (human papillomavirus type 16). As to the kind of experiment: bead-based binding assay on filter plates (alkaline phosphatase luminescence); MBP-E6 held on amylose beads at indicated concentrations or 0.67 uM; E6AP-BAP added at 50 nM, 1-3 h, room temperature; 400 mM NaCl, 50 mM Tris-HCl pH 6.8, 0.1% milk, 1 mM DTT; amylose bead control subtracted.
The target of test [2] is E6AP-BAP (aa 371-440) fusion protein (UniProt Q05086).
The target of test [3] is T1, E6AP-BAP (aa 371-440) fusion protein (UniProt Q05086 371-440).
T1 sequence (looked up): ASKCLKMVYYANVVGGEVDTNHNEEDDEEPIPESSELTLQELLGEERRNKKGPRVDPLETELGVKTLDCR
As to the kind of experiment: cell-based or functional assay.

In test [1], “E6AP-BAP (aa 371-440) fusion protein (from UniProt Q05086 371-440) (domain or fragment)” gave a percent of the wild-type binding capacity (% of wild type) of 70.
On to MBP-E6 R102A (natural protein), for which, in test [2], the p53-luciferase reporter level in C33A cells transfected with HPV-16 E6 expression vector (untagged, pLXSN), EC50 in ng of DNA was 172 ng; the p53 in vitro degradation, 3 h incubation, 0.25 and 1 uM MBP-E6 R102A; decrease of p53 was determined as 50%.
For MBP-E6 R55A (natural protein), the p53 in vitro degradation by purified MBP-E6 in rabbit reticulocyte lysate, 2 h; activity against wild type in test [2] came out at 50%.

B1: MBP-HPV-16 E6 (wild-type) (natural protein, human papillomavirus type 16, UniProt P03126 1-158, looked up)
chain: MHQKRTAMFQDPQERPRKLPQLCTELQTTIHDIILECVYCKQQLLRREVYDFAFRDLCIVYRDGNPYAVCDKCLKFYSKISEYRHYCYSLYGTTLEQQYNKPLCDLLIRCINCQKPLCPEEKQRHLDKKQRFHNIRGRWTGRCMSCCRSSRTRRETQL
With B1, in test [3], the “p53-luciferase reporter level in C33A cells transfected with HPV-16 E6 expression vector (untagged, pLXSN), EC50 in ng of DNA” value came to 32 ng.

These data come from paper PMC4767726, “Molecular Probing of the HPV-16 E6 Protein Alpha Helix Binding Groove with Small Molecule Inhibitors” (PLoS ONE, 2016).
